Reference: PMC5856423, “Structural basis for recognition of the central conserved region of RSV G by neutralizing human antibodies” (PLoS Pathogens, 2018)

T1: 32-residue peptide encompassing RSV G Phe165-Lys196, subtype B (Human respiratory syncytial virus …, UniProt O36633, strain)
T1 construct: attachment glycoprotein G of human RSV subtype B, residues Phe165-Lys196; The tested set is a series of alanine mutants of this peptide; source: covalently linked peptides on Pepscan cards
T1 chain: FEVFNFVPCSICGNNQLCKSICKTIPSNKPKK

T2: 45-residue synthetic peptide encompassing the subtype A RSV G central conserved region (G peptide) (Human respiratory syncytial virus A …, not fully specified; N-terminal biotin coupling as the last step in synthesis; disulfide bonds of the cystine noose formed by oxidative folding)
T2 construct: attachment glycoprotein G of human RSV subtype A, central conserved region, residues Asn153-Lys197 (45 residues); also called RSV G peptide; subtype A RSV G peptide; source: synthetic peptide (Fmoc solid phase, HPLC), oxidatively folded
T2 chain: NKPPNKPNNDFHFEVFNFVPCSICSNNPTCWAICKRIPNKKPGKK

B1: CB017.5 IgG (antibody, V domains shown)
VH: QVQLVESGGGVVQPGRSLRLSCSASGFTFSVYAMHWVRQAPGQGLEWVAIIWYDGSNKYYADSVKGRFTISRDNSKETLYLQMNSLRVEDTAVYYCARDPIVGHTRDGLDVWGQGTTVTVSS
VL: SYELTQPPSVSVSPGQTARVTCSGDAMAEQYTYWYQQKPGQAPVLIIFKDTERPSGIPERFSGSSSGTTVTLTISGVQTEDEADYYCQSTDSSGTSWVFGGGTKLTVL
notes: as the light chain of m2 (PDB 6BLH); full-length IgG1; also called antibody CB017.5; source: FreeStyle 293-F or PER.C6 cells, transfected, purified (Protein A)
B2: Fab CB017.5 (Fab, V domains shown)
VH: B1 VH
VL: B1 VL
notes: human; Fab cut with papain from full-length IgG1; source: IgG from FreeStyle 293-F or PER.C6 cells, transfected, Protein A; Fab by papain digestion, purified (Protein A flow-through, SEC)
B3: CB002.5 IgG (antibody, V domains shown)
VH: QVQLQESGPRLVKPSETLSLTCTVSGGSTSSYFWNWIRQPPGKGLEWIGYIYGSGSADYNPSLKSRVTISIDTSKTQFSLKLTSVTAADTAVYYCARSGFCSDDACYRRGSWFDPWGQGTLVTVSS
VL: DIQMTQSPSSLSASVGDRVTITCRASQSIDNYLNWYQQKPGKAPKLLIYAASGLQSGVPSRFSGSGSGTEFTLTVSSLHPEDFATYYCQQSYSTLTWTFGQGTKVEIK
B4: Fab CB002.5 (Fab, V domains shown)
VH: B3 VH
VL: B3 VL
notes: as for B2

Experiments:
[1] = target: T1, 32-residue peptide encompassing RSV G …; experiment: peptide or protein array; Pepscan-based ELISA: peptides covalently linked in the wells of cards, mAb at 1-10 ng/mL overnight at 4°C in PBS with horse serum, OVA and Tween 80; HRP-linked anti-human IgG, ABTS; conditions: both partners purified
[2] = target: secreted form of RSV G from strain A2 (sG) (human respiratory syncytial virus strain A2)
[3] = target: reduced and alkylated form of the G peptide (human respiratory syncytial virus subtype A) (UniProt P03423); experiment: SPR; G peptide (or its reduced and alkylated form) immobilised on a CM5 chip by primary-amine coupling (25 RU), Biacore X100; Fab in serial 2-fold dilutions in HBS-P+ (CB002.5 25 nM-98 pM, CB017.5 100 nM-195 pM; on the reduced and alkylated peptide CB002.5 1,000-1.95 nM, CB017.5 62.5-1.95 nM); 1:1 binding model
[4] = target: T3, secreted form of RSV G from strain A2 (sG) (Human respiratory syncytial virus A, …, UniProt P03423, strain); experiment: SPR; sG captured by its C-terminal 8xHis tag on an NTA sensor chip (60-150 RU), Biacore X100; Fab in serial 3-fold dilutions from 300 nM to 46.5 pM in HBS-P+; double-reference subtracted, 1:1 binding model; conditions: both partners purified
T3 construct: attachment glycoprotein G of human respiratory syncytial virus strain A2, secreted form (sG); also called RSV sG; wild-type RSV sG from strain A2; source: FreeStyle 293-F, transfected, purified from supernatant (Strep-Tactin, SEC); not shown: 8xHis, C-terminal, kept

[5] = target: T2, 45-residue synthetic peptide …; experiment: SPR; G peptide (or its reduced and alkylated form) immobilised on a CM5 chip by primary-amine coupling (25 RU), Biacore X100; Fab in serial 2-fold dilutions in HBS-P+ (CB002.5 25 nM-98 pM, CB017.5 100 nM-195 pM; on the reduced and alkylated peptide CB002.5 1,000-1.95 nM, CB017.5 62.5-1.95 nM); 1:1 binding model; conditions: both partners purified

Row | Binder | binding result [1] | IC50 of neutralization of RSV (rgRSV224) infection of primary HBECs at an air-liquid interface, in the absence of complement; pair that is blocked: RSV G and CX3CR1 [2] | Kd [3] | Kd [4] | Kd [5]
1 | B1 | binds | 45.4 nM | – | – | –
2 | B2 | – | – | 27 nM | 2.4 nM | 4.1 nM
3 | B3 | – | 4.7 nM | – | – | –
4 | B4 | – | – | 18000 nM | 3.3 nM | 0.52 nM
